Measurements from US20220404334A1, “BIOCHIP HAVING MICROCHANNEL PROVIDED WITH CAPTURING AGENT FOR PERFORMING CYTOLOGICAL ANALYSIS” (CASE WESTERN RESERVE UNIVERSITY, priority 2019, published 2022).

What was measured:
[1] = system: heme-activated endothelial cells (HUVECs and HPMECs); assay: Endothelium-on-a-chip: sickle RBC adhesion to heme-activated endothelial cells under hypoxia; format: cell-based, human; settings: 5 μM, N=13 subjects
Experimental: The assembled microchannels are rinsed serially with PBS, 100% ethanol, and GMBS following a 20-minute incubation. Thereafter, another washing step is performed using 100% ethanol and PBS before loading the microchannels with a fibronectin solution at a concentration of 0.2 mg/mL. Fibronectin-loaded microchannels are incubated at 37° C. for 1 hour for complete protein immobilization on the GMBS-functionalized surface. To prepare the endothelialized microchannels, human endothelial cells are seeded into fibronectin-coated microchannels at a density of 4×10^6 cells/mL and incubated for 2 hours at 37° C. and 5% CO2 to allow cell attachment and spreading, while replacing the culture medium in the microchannels every hour.
The activating agents (e.g., heme or TNF-α) are then injected into the microchannels in a serum-free medium and incubated for a pre-determined period for activation to take place. Before using the activated endothelial cells, the microfluidic channels are rinsed for at least 2 times with serum-free medium.
When using blood samples collected in Ethylenediaminetetraacetic acid (EDTA) containing vacutainers, the blood samples are first centrifuged and washed three times with PBS to isolate blood cells from plasma. When in contact with adherent endothelial cells, EDTA will induce cell detachment by inhibiting Ca^2+ ions that are necessary for cell adhesion through integrins. […]

Recombinant human ICAM-1 = Recombinant human ICAM-1 (Homo sapiens, UniProt P05362); assay: Microfluidic flow adhesion of HbSS RBCs to immobilized ICAM-1, inhibition experiments; format: cell-based
Experimental: ICAM-1 functionalized microchannels of the microfluidic device were connected to blood-containing syringes through 40-cm inlet tubing. A total of […] of whole blood sample was perfused into the microchannels at an approximate shear stress of 1 dyne/cm^2, corresponding to the typical shear stress observed in postcapillary venules, via a constant displacement syringe pump (New Era NE-300; New Era Pump Systems, Farmingdale, N.Y.). To remove the nonadherent cells, another syringe filled with wash buffer (1% bovine serum albumin and 0.09% sodium azide in 13 phosphate buffered saline [PBS]) was connected to the microchannels, and the buffer solution was injected at […], corresponding to a wall shear stress of 1 dyne/cm^2, until all nonadherent cells had been cleared. Phase-contrast images of the microchannel surface were obtained using an inverted microscope at 203. Quantification of ICAM-1-adherent RBCs was performed manually using Adobe Photo-shop CS5 (Adobe, San Jose, Calif.) within a rectangular field of view (fov) with a surface area of 32 mm^2.
For the inhibition studies, whole HbSS blood samples were mixed with a monoclonal mouse antibody against human α4β1 or LFA-1 at a final antibody concentration of […] and incubated at 37° C. for 1 hour prior to the adhesion experiments. As a control, samples were treated with the same concentration of isotype-control mouse immunoglobulin G1 for the same duration. Anti-human LFA-1 antibody and the isotype-control mouse immunoglobulin G were from BioLegend (San Diego, Calif.). Anti-human α4β1 antibody was purchased from Abcam (Cambridge, Mass.). To block the β2-associated adhesion pathways, a recombinant human β2 protein solution (Novus Biologicals, Centennial, Colo.) was perfused into ICAM-1-functionalized microchannels and incubated for 1 hour at 37° C. Before starting the adhesion experiments, the microchannels were rinsed 3 times with PBS. Similarly, to test the inhibitory effect of fibrinogen (Enzo Life Sciences, Farmingdale, N.Y.) or low molecular weight heparin (LMWH; AMSBIO, Cambridge, Mass.), ICAM-1-functionalized microchannels were injected with fibrinogen (range, 1-20 mg/mL) or LMWH (range, 0.1-5 mg/mL). After an hour at 37° C., the microchannels were rinsed with PBS 3 times, and adhesion was assessed as above.
Minitab 19 (Minitab, State College, Pa.) was used to analyze the results. A normality test was performed to determine whether the variables were normally distributed. Because of the largely non-normally distributed variables, Mann-Whitney U tests were used to compare 2 groups, and Kruskal-Wallis tests with Dunn's correction were used to compare multiple groups, unless stated otherwise. K-means clustering analysis was performed to identify distinct subject subpopulations based on hemolysis biomarkers. Through-out this article, the error bars represent±standard error of the mean (SEM). P<0.05 was considered statistically significant.

P-selectin [2] = target: T1, P-selectin (Homo sapiens, UniProt P16109); assay: Detachment experiments: drug flowed over leukocytes already adherent to immobilized P-selectin; format: cell-based
T1 sequence (P16109 42-830): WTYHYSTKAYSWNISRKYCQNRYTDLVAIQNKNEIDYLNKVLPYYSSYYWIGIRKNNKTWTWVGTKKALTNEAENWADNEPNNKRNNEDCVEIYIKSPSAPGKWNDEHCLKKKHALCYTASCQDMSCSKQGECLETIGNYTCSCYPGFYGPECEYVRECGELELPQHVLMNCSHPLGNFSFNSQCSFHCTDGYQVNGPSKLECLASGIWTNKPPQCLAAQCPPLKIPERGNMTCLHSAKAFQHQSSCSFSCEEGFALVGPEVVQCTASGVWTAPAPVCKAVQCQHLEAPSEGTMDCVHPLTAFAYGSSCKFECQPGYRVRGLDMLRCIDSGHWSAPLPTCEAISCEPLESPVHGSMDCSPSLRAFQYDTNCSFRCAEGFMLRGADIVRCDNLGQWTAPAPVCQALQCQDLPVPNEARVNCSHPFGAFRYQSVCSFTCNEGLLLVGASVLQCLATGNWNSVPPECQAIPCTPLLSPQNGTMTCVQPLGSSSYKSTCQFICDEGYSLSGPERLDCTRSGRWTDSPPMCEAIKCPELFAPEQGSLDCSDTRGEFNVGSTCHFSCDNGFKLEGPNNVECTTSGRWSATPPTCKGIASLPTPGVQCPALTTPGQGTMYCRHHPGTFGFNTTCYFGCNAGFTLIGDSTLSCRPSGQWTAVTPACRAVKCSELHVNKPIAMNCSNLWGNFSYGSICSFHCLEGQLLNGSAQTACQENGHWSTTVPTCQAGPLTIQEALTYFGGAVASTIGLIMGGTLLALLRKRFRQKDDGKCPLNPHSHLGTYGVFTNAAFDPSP
Experimental: (§1) Microfluidic devices were fabricated using a lamination technique. Each microfluidic device contained 3 identical microchannels with a height of 50 μm (FIG. 6A), which were designed to recapitulate volume and flow of post-capillary venules. The microchannels were functionalized with recombinant human P-selectin (25 μg/mL) and blocked with 2% bovine serum albumin (BSA) to pre-vent non-specific adhesion. After tubing assembly, whole blood samples were mixed with Hanks' buffer modified with calcium and magnesium (1:1 v/v), and 15 μL of the diluted whole blood was injected into the microchannels using New Era NE-300 syringe pump system (Farming-dale, N.Y.) at an approximate shear rate of 1 dyne/cm^2. Non-adherent cells were rinsed out by flowing Hanks' buffer. Phase-contrast images of the microchannels with adherent leukocytes were recorded at 10× with an inverted microscope (Olympus IX83) and a camera (EXi Blue EXI-BLU-RF-M-14-C), and adherent leukocytes were manually quantified with Adobe Photoshop software (San Jose, Calif.) in a 32 mm^2 area.
Crizanlizumab (ADAKVEO®, SEG101) stock solution (10 mg/mL) was donated by Novartis (Basel, Switzerland). For the inhibition experiments, P-selectin immobilized-microchannels were pre-treated with Hanks buffer as vehicle control, or Crizanlizumab with graded concentrations of 1, 10, 100 μg/mL, or 1 mg/mL at 37° C. for 30 min. There-after, the adhesion assay was performed. Human IgG2 (Sigma Aldrich, St. Louis, Mo.), at 100 μg/mL, was included as the isotype control for Crizanlizumab. For the detachment experiments, modified microchannels with individual inlets for separately injecting blood and drug-containing buffer were designed to allow transition from washing buffer to Crizanlizumab during rinsing. […] Cell behaviors were also continuously recorded. […]
Leukocyte adhesion data were reported as mean±standard error of the mean (SEM). […] Statistical significance was determined based on a p-value<0.05 (p<0.05).

P-selectin [3] = target: T1, P-selectin; assay: Microfluidic whole blood assay of leukocyte adhesion to immobilized P-selectin, microchannels pre-treated with drug (inhibition experiments); format: cell-based
Experimental: as §1
Crizanlizumab (ADAKVEO®, SEG101) stock solution (10 mg/mL) was donated by Novartis (Basel, Switzerland). For the inhibition experiments, P-selectin immobilized-microchannels were pre-treated with Hanks buffer as vehicle control, or Crizanlizumab with graded concentrations of 1, 10, 100 μg/mL, or 1 mg/mL at 37° C. for 30 min. There-after, the adhesion assay was performed. Human IgG2 (Sigma Aldrich, St. Louis, Mo.), at 100 μg/mL, was included as the isotype control for Crizanlizumab. For the detachment experiments, modified microchannels with individual inlets for separately injecting blood and drug-containing buffer were designed to allow transition from washing buffer to Crizanlizumab during rinsing. Two synchronous pumps connected to these inlets were programmed such that Crizanlizumab at 10 μg/mL was injected into microchannels after Hanks buffer without a disruption in shear rate. The programmed flow rates of the two synchronous pumps over the course of the experiment are shown in FIG. 7A, which insured a constant shear rate in the microchannels. Cell behaviors were also continuously recorded. Phase contrast images of the adherent leukocytes were collected during Hanks's buffer rinse and Crizanlizumab flow for comparison.
Leukocyte adhesion data were reported as mean±standard error of the mean (SEM). Clinical variables of the study population were re-ported as mean±standard deviation (SD). Statistical analyses were per-formed with Minitab (Minitab Inc., State College, Pa.). A test for normality was initially performed on relevant variables. A paired t-test was per-formed to compare paired groups before and after Crizanlizumab treatment. Statistical significance was determined based on a p-value<0.05 (p<0.05).

P-selectin [4] = target: T1, P-selectin; set-up: host or cells: patients with SCD (endogenous protein in vivo); settings: infused monthly, patients with SCD; cited from earlier work
[5] = pre-treatment 1 μg/mL, HbSS on-transfusion samples, N=8
[6] = pre-treatment 10 μg/mL, HbSS on-transfusion samples, N=8
[7] = pre-treatment 1 mg/mL, HbSS on-transfusion samples, N=8

Sequence of Recombinant human ICAM-1 (P05362 28-532): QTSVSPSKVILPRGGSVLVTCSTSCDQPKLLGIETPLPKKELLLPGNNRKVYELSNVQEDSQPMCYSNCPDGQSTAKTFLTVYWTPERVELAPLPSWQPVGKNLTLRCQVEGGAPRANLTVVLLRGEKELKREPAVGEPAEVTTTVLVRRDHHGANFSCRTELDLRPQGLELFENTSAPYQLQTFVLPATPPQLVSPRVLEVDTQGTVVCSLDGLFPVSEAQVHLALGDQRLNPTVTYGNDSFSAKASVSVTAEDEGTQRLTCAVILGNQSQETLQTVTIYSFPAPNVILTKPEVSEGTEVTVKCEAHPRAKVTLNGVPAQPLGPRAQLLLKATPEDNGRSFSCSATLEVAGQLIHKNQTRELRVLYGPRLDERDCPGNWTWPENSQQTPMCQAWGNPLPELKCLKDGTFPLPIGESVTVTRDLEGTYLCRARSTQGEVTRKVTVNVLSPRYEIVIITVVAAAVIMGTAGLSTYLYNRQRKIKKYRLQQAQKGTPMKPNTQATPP

## Cc1ccc(NC(=O)c2ccc(CN3CCN(C)CC3)cc2)cc1Nc1nccc(-c2cccnc2)n1 [imatinib]
[1]
  Sickle RBC adhesion to heme-activated endothelial cells (mean adhesion±SEM): 171±30

## fibrinogen
Recombinant human ICAM-1; microchannels incubated with 1 mg/mL
  Effect on RBC adhesion to ICAM-1: did not inhibit RBC adhesion
Recombinant human ICAM-1; microchannels incubated with 5 mg/mL
  Adhesion blocked: about 50%
Recombinant human ICAM-1; microchannels treated with 1, 5, 10, 20 mg/mL, n=5
  Effect on RBC adhesion to ICAM-1: significantly decreased RBC adhesion in a concentration-dependent manner

## low molecular weight heparin [LMWH]
Recombinant human ICAM-1; preincubation of microfluidic channels (not blood)
  Effect on RBC adhesion to ICAM-1: had no effect
Recombinant human ICAM-1; pretreatment of blood samples at 0.1 mg/mL
  Inhibition of RBC adhesion to ICAM-1: 0.80%
Recombinant human ICAM-1; whole blood samples treated (1:1 v/v) at 0.1, 1, and 5 mg/mL
  Effect on RBC adhesion to ICAM-1: significantly blocked RBC adhesion to ICAM-1

## recombinant human β2 protein: recombinant human β2 protein solution (Novus Biologicals) to block β2-associated adhesion pathways
Recombinant human ICAM-1; microchannels treated with protein 1 hour 37° C., 5 experiments
  Effect on HbSS RBC adhesion to immobilized ICAM-1: No significant reduction

B1: Crizanlizumab: humanized monoclonal antibody against P-selectin (antibody, chains of the INN, looked up, V domains shown)
VH: QVQLVQSGAEVKKPGASVKVSCKVSGYTFTSYDINWVRQAPGKGLEWMGWIYPGDGSIKYNEKFKGRVTMTVDKSTDTAYMELSSLRSEDTAVYYCARRGEYGNYEGAMDYWGQGTLVTVSS
VL: DIQMTQSPSSLSASVGDRVTITCKASQSVDYDGHSYMNWYQQKPGKAPKLLIYAASNLESGVPSRFSGSGSGTDFTLTISSLQPEDFATYYCQQSDENPLTFGGGTKVEIK
P-selectin [2]; post-treatment 10 μg/mL after leukocytes adhered
  Effect of post-treatment on adherent leukocytes: detachment of rolling leukocytes whereas firmly attached cells remained adherent
P-selectin [2]; post-treatment 10 μg/mL, N=6
  Leukocyte adhesion after introducing drug, range: 58-2388
P-selectin [2]; post-treatment 10 μg/mL, N=6 (4 on-transfusion)
  Leukocyte adhesion after introducing drug into the microchannels (mean±SEM): 719±354
P-selectin [3]; isotype control comparison, 100 μg/mL, N=3
  Leukocyte adhesion (adherent leukocytes, mean±SEM): 596±221
P-selectin [3]; [5]
  Leukocyte adhesion (adherent leukocytes, mean±SEM): 1535±258
  Leukocyte adhesion, range: 257-2732
P-selectin [3]; [6]
  Leukocyte adhesion (adherent leukocytes, mean±SEM): 1057±325
  Leukocyte adhesion, range: 195-2948
P-selectin [3]; pre-treatment 100 μg/mL, 37° C. 30 min, HbSS on-transfusion samples, N=8, 32 mm^2 area, 1 dyne/cm^2
  Leukocyte adhesion (adherent leukocytes, mean±SEM): 703±161
P-selectin [3]; pre-treatment 100 μg/mL, HbSS on-transfusion samples, N=8
  Leukocyte adhesion, range: 131-1474
P-selectin [3]; [7]
  Leukocyte adhesion (adherent leukocytes, mean±SEM): 587±168
  Leukocyte adhesion, range: 81-1403
P-selectin [3]; pre-treatment 1 mg/mL, non-transfusion individuals (on-hydroxyurea or supportive care), N=8
  Leukocyte adhesion (adherent leukocytes, mean±SEM): 179±79
P-selectin [3]; pre-treatment 1 mg/mL, non-transfusion individuals, N=8
  Leukocyte adhesion, range: 39-691
P-selectin [4]
  Annual rate of VOC: reduced the annual rate of VOC
